In US20170137795A1 (NOVOZYMES A S, published 2017):

T1: Rhizomucor miehei lipase (RmL) mature protein (Rhizomucor miehei, UniProt P19515 95-363)
T1 construct: Expressed in Aspergillus oryzae ToC1512 from the gene with its prepropeptide; The mature part is the same in all RMLPP variants; also called RmL WT; mature protein of the lipase
T1 sequence: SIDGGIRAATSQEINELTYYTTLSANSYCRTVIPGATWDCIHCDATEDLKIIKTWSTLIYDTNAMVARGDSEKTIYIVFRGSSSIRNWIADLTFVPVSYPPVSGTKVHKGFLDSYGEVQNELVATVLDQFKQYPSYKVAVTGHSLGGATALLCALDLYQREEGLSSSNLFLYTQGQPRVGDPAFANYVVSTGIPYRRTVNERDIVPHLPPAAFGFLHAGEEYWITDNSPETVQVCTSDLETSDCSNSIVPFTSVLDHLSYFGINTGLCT


What was measured:
[1] = target: T1, Rhizomucor miehei lipase (RmL) mature …; assay: native PAGE, column HMW band (taken by the filing as lipase associated with propeptide)
Experimental: (§1) The native PAGE was casted by first pouring the Resolving gel (4.0 mL 30% Acrylamide (Acrylamide-Bis-acrylamide solution); 2.5 mL 1.5M Tris (pH8.8); 0.1 mL 10% Ammonium per sulphate (APS); 0.004 mL TEMED; 3.3 mL water), followed by overlaying with butanol-water and allowing to polymerize for 30-45 minutes. The butanol-water was washed off and then the stacking gel (1.7 mL 30% Acrylamide (Acrylamide-Bis-acrylamide solution); 1.25 mL 1.5M Tris (pH6.8); 0.1 mL 10% Ammonium per sulphate (APS); 0.01 mL TEMED; 6.8 mL water), was poured over the polymerized resolving gel, immediately followed by insertion of the comb. This was allowed to polymerize for approx. 15 minutes. The protein sample (culture supernatant) was mixed with loading dye (5× composition (2 mL): 0.62 mL 1M Tris pH6.8; 0.1 mL 1% Bromophenol blue; 1.0 mL Glycerol; 0.28 mL Water) and loaded in to the wells of the native PAGE. The gel was run in SDS-free electrophoresis buffer (3.0 g Tris base; 14.4 g Glycine; water up to 1 L) at constant current of 25 mA.

[2] = target: T1, Rhizomucor miehei lipase (RmL) mature …; assay: native PAGE of culture supernatant; HMW band, taken by the filing as lipase associated with propeptide
Experimental: as §1

| binding result [1] | binding result [2] | Binder |
| --- | --- | --- |
| binds |  | propeptide of RmL (wild type) (also called RmL WT propeptide) peptide: VPIKRQSNSTVDSLPPLIPSRTSAPSSSPSTTDPEAPAMSRNGPLPSDVETKYGMALNATSYPDSVVQAM |
|  | no binding | propeptide of RMLPP0006 (N-63Q N-13Q) (peptide) peptide: VPIKRQSQSTVDSLPPLIPSRTSAPSSSPSTTDPEAPAMSRNGPLPSDVETKYGMALQATSYPDSVVQAM |
